# The nanobody polyreactivity screen of Harvey et al. (2022)
# Assay: yeast display, Sf9 membrane polyspecificity reagent, FACS + sequencing; frameworks hold sequencing errors
# Summary of the method: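 Nanobodies came from a synthetic yeast display library in Saccharomyces cerevisiae BJ5465, induced with galactose for 36–48 hours and stained for 1 hour at 4 °C with 10% biotinylated, detergent-solubilized Sf9 membrane reagent. Cells were enriched on streptavidin microbeads and then FACS-sorted, with low and high (top ~1%) gates set on anti-HA fluorescence for expression and streptavidin fluorescence for reagent binding. Each polyreactivity label reflects the gate a clone came from. Genes were amplified by colony PCR, sequenced by MiSeq 2 × 250 and filtered by CDR length.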
row,Sequence,polyreactivity (PSR sort gate)
1,QVQPQERGGGPVQACGSLRLSCAARGNILDADILGWYRLVPGKEGELVASITDGGSTNYAESVKGRFTLSRDNAINTVYHHMNSLKPEDTAVYYCAANARSHAEHDYWGQGTQVTVSS,low polyreactivity
2,QVQLVESGGGLVQAGGSLRLSCAASGRIFYYYAMGWYRQAPATERELFAGINSGGNTYADSVKGRFTISRDNAKNTVYLQMNSLKPEDTAVYYCATDFYSYAGGYYHHDHWGQGTQVTVSS,high polyreactivity
3,QVQRVESGGGLVQAGGTLRLSCAASGNTFDYYAMGWYRQAPGKERELVAAIRYRGGTTYYADSVKGRFTISRDNAKNTVYLQMNSLKPEDTAVYYCAARYVPYSRRYNYWGQGTQVTVSS,high polyreactivity
4,QVQLVESGGGLVQAGGSLRLSCAASGFTFRNNAMGWYRQAPGKERELVAAISKRGSSTYYADSVKGRFTISRDNAKNTVYLQMNSLKPEDTAVYYCAASWLGASGIRYDYWGQGTQVTVSS,high polyreactivity
5,QVQLVESGGGLVQAGGSLRLSCAASGSTFGKNAMGWYRQAPRKERELVAAISRSGGRTYYADSVKGRFTISRDNAKNTVYLQMNSLKPEDTAVYYCAREWYTAGSGDYWGQGTQVTVSS,low polyreactivity
6,QVQLVESGGGLVQAGGSLRLSCAASGFTFYYNAMGWYRQAPGKERELVSIRFRGGNTYYADSVKVRFTISRDNAKNTVYLQMNSLKPVDTAVYYCNADDRVSTYVDFDYWGQGTQVTVSS,low polyreactivity
7,QVQLVESGGGLVQAGGSLRLSCAASGRIFPVYAMGWYRQAPGNERELVAAITSGVGSTYYADSVKGRFTISRDNAKNTVYLQMNSLKPEDTAVYYCAADSSYLTYWEYDYWGQGTQVTVSS,low polyreactivity
8,QVQLVESGGGLVQAGGSLRLRCAASGRTFSGYAMGWYRQAPGKERELVAAITSGGNTYYADSVKGRFTISRDNAKNTVYLQMNSLKPEDTAVYYCAVVDYLWLLQLWLSDYWGQGTQVTVSS,low polyreactivity
9,QVQLVESGGGLVQAGGTLRLSCAASGLTFKSYDMGWYRHAPGKERELVAAITSGVSTHYADSVKGRFTISRDNAKNTVYLQMNSLKPEDTAVYYCAADYSWYDPYWIMDYWGQGTQVTVSS,low polyreactivity
10,QVQLVESGGGLVQAGGSLRLSCAASGYTFAYNAMGWYRQAPGKERELVAVITWSGDSTYYADSVKGRFTISRDNAKNTVYLQMNSLKPEDTAVYYCAAQVDRWKGREHDYWGQGTQVTVSS,low polyreactivity
11,QVQLVESGGGLVQAGGSLRLSCAASGSTFYRNAMGWYRQAPGKERELVAGISWRGGSTYYADSVKGRFTISRDNAKNTVYLQMNSLKPEDTAVYYCNTLGAGGYSSPADYYYWGQGTQVTVSS,high polyreactivity
12,QVHLVESGGGLVQAGGSLRLSCPASGRTLDSNAMGWYRQAPGKERELVAAISSAGSTNYADSVKGRFTISRDNAKNTVYLQMNSLKPEDTAVYYCAADLIGSHDYWGQGTQVTVSS,low polyreactivity
13,QVQLVESGGGLVQAGGSLRLSCAASGLTFYLNAMGWYRQAPGKERELVAGISYTGGSTYYADSVKGRFTISRDNAKNTVYLQMNSLKPEDTAVYYCARDNFYYGVWDYGYWGQGTQVTVSS,low polyreactivity
14,QVQLVESGRGLFQAGGSLRLSCAASGIIFKSYAMGWYRQAPGKEREFVAAISWSGGRTTYADSLKGRFTISRDNAKNTVYLPMNSLKPEDTAVYYCAAAARGKFYYWGQGTQVTVSS,high polyreactivity
15,QVQLVESGGGLVQAGGSLRLSCAASGRILYFYIGWYRQAPGTEREFVADISSTTSTYYADSVKGRFTISRDNAKNTVYLQMKSLKPEDTAVYYCAAPGDGYAYPIVWYGYSGYYYWGQGTQVTVSS,low polyreactivity
16,QVQLVESGGGLVQAGGSLRLSCAASGRIFRRYTMGWYRQAPGKERELVAAISSGGSTYYADSVKGRFTISRDNAKNTVYLQMNSLKPEDTAVYYCNADSRSQPYYPEFDYWGQGTQVTVSS,low polyreactivity
17,QEQLQESGGGLVQAGGSLRLSCAASGNIYDADIMGWYRQAPGKERELVTSITDGGSTNYADSVKGRFTISRDNAKNTVYLQMNSLKPEDTAVYFCAAIAYPVIPTSFDYNSDYSYWGQGTQVTVSS,low polyreactivity
18,QVQLVESGGGLVQAGGSLRLSCAASGITFYVYAMGWYRQAPGKEREFVAAISTRDGTTYADSLKGRFTISRDNAKNTVYLQMNSLKPEDTAVYYCAAAYYYDGQQGDFDYWGQGTQVTVSS,low polyreactivity
19,QVQLVESGGGLVQAGGSLRLSCAASGRTLYVNAMGSYRQAPGKERELVARISSGSSTNYADSVKGRFTISRDNAKNTVYLQMNSLKPEHTAVYYCAARYTARRQSYGYWGQGTQVTVSS,high polyreactivity
20,QVQLVESVGGLVQAGGSLRLSCAASGFIFTLYTMGWYRHAPGKERELVADIDKNGSTYYADSVKGRFTISRDNAKITVYLRMYSLKPEDTAFYYCAADDRYRGNREDYWGQGTQVTVSS,low polyreactivity
21,QVQLVESGGGLVQAGGSLRLSCAAPGSTFVAYAMGWYRQAPGKERELVAAISSVGRTNYADSVKGRFTISRDNAKNTVYLQMNSLKPEDTAVYYCAAVYVDRRKRSYYWGQGTQVTVSS,high polyreactivity
22,QVQLEESGGGLVQAGGSLRLSCAASGSIFNYYAMGWYRQAPGKERELVAAITTSGGNTYYADSVKGRFTISRDNAKNTVYLQMNSLKPEDTAVYYCNVDARSSYDYWGQGTQVTVSS,low polyreactivity

row,Sequence,polyreactivity (PSR sort gate)
1,QVQLVESGGGLVQAGGSLRLSSAASGFTFPWYAMGWYSQAPGKEREVVAVISSSGGSTYYADSVKGRFTISRDNAKNTVYLQMNSLKPEDTAVYYCARAYGGRGYDIRYDYWGKGTQVTVSS,high polyreactivity
2,QVQLVEAGGGLVHAGGSLRLSCAASGRIFLAYAMGCYRQAPGKEMELVATIRSGGSTTYADSVKGRFTISRDNAKNSVYLQMNSLKTEDTAVYYCARRYQRKKPVFPHSQGAYDYWGQGTQVTVSS,low polyreactivity
3,QVKLVESGGGLVQAGGSLRLSCAASGRIFQPYAMGWYRQAPGKERELVADITYRDGSTYFADSVKGRFTISRDNAKNTVYLQMNSLKPEDTAVYYCNADGEYAKDDWFHWYDYWGQGTQVTVSS,high polyreactivity
4,QVQLVESGGGLVQAGGSLRLSCAASGRILSYNAMGCYRQAPGKERELVAGISWSGGSTYYADSVKGRFTISRDNAKNTVYLQMNSLKPEDTAVYYCNKLQGLTWYNSPYGYWGQGTQVTVSS,high polyreactivity
5,QVQLVESGGGLVQAGGSLRLSCAASGRTFGPYAMGWSRQAPGKERELVAAITWSGGSTYYADSVKGRFTISRDNAKNTVYLQMNSLKPEDTAVYYCAAKFSIWTLKKYYYWGQGTQVTVSS,high polyreactivity
6,QVQLVESGGGLVQAGGSLRLSCAASGIIFHPYAMGWYRQAPGKERELVAVITWPGDSTYYADSVKGRFTISRDNAKNTVYLQMNSLKPEDTAVYYCNVDAWGTSGELPYDYWGQGSQVTVSS,low polyreactivity
7,QHQLEESGGGLVQAGGSLRLSFAAYGFIFGRYTMGWYRQAPVKERELVAAISSRGGSTYYADSVKGGFTISRDYAKYTVYLQMNSLNPEDTAVYSCNALRRPSSEGRDYWGQGTQVTVSS,high polyreactivity
8,QDQRVESAGGLVQAGGSLRLSCAASGNIFDPNAMGGYRQAPGKERELVAAIRRGGSTNYADSVKGRFTISRDNAKNTVYLQMISLKPEDTAVYDCDKSRVSFTDLEGYYWGQGTLVTVSS,low polyreactivity
9,HVQLVESGGGLVQAGGSLRLSCAASGSTFFKYGMGWNRQAPGKERELVASITSRTGSTYYADSVKGRFTISRDNAKNTVYLQMKSLKPEDTAVYYCNVRRGGGYRYGARTFIYGHWGEGTQVTVSS,high polyreactivity
10,QVQLVESGGGLVQAGGSLRLSCAASGSIFGGNAMGWYRQAPGKERELVATITVRGGSTYYADSVKGRFTISRDNAKHTVYLQMNSLKPEDTAVYYCAARGGYLLPKYDYWGQGTQVTVSS,low polyreactivity
11,QFQLVESGGGLVQAGGSLRLSCAASGRTLSSYDMGWYRQAPGKERELVAAISRGGSTYYADSVKGRFTISRDNAKNTVYLQMNSLKPEDTAVYYCAASFYGGYWGYDYWGQGTQVTVSS,high polyreactivity
12,QVQLVESGGGLVQAGGSLRLSCAASGFIFVRYAMGWYRQAPGKQRELVASITRSGGSTYYADSVKGRFTISRDNAKNTVYLQMNSLKPEDTAVYYCAASYFRSRGSTYGYWGQGTQVTVSS,high polyreactivity
13,QVQLVESGGRLVQAGGSLRLSCADSGRTFYLYAMGWYRQAPGKEREFVADITFSGASTDYAASVKGRFTISRDNAKNTVYLQMNSLKPEDTAVYYCNADIAHVCWWSYPTDDYWGQGTQVTVSS,high polyreactivity
14,QVQLVESGGGLVQAGGSLRLSCAASGRTFTYYAMGWYIQAPGKEREFVASISLSGGRTYYADSVKGRFTISRDNAKNTVYLQMNSLKPEDTAVYYCNAYYPRVDRYDYWGQGTQVTVSS,low polyreactivity
15,QVQLVESGGGLVQAGGSLRLSCAASGSIFEVYAMGWYRQAPGKERELVAAINYTGGSTYYADSVKGRFTISRDNAKNTVYLQMNSLKPEDTAVYYCARDTSGIGTRYDYWGQGTQVTVSS,low polyreactivity
16,QVQLVESGGGLVQAGGSLRLSCAASGYTFGSNAMGWYRQAPGKERELVAAISNGGSTNYADSVKGRFTISRDNAKNTVYLQMTSLKPEDTAVYYCAAASRWHIGYWRYDYWGQGTQVTVSS,low polyreactivity
17,QVQLVESGGGLVQAGGSLRLSCAASGRIFGHYAIGWYRKAPGKERELVAAISTSGGSTYYADSVKGRFTISRDNAKNTVYLQMNSLKPEDTAVYYCAASVVYYPYDYWGQGTQVTVSS,high polyreactivity
18,QVHLVESGGGLVQAGGSLRLSCAASGITFGRNTMGWSRQAPGKERELVDAIDSCGNTYADSVKGRFTISRDNAKNTVYLKMNIVNPEDTAVYYCAVDGGEFSSYGEWGQGTQVTVAS,low polyreactivity
19,QVQLVDSGGGVVQAGGSLRLSCAASGFIFSGYAMGWYRPAPGKERELVAVISRGGGSTSYADSVKGRFTISRDNAKNTVYLQMNSLKPEDTAVYYCAAVYYPLSVDNDYWGQGTQVTVSS,high polyreactivity
20,QVQLVESGGRLVQAGGSLRLSCAASGSIFSGYTMGWYRQAPGKERELVAAISSDGSTTYADSVKGRFTISRDNAKNTVYLQLNSLKPEDSAVYYSAAYPYWDGSYGGYDYWGQGTQVTVSS,low polyreactivity
21,QVQLVDSGGGLVQAGGSLRLSCAASGNTFRIYAMAWYRQAPGKERELVAAISQSGGSTYYADSVKGRFTISRDNAKNTVYLQMNSLKPEDTAVYYCAATGARRKFYYWGQGTQVTVSS,high polyreactivity
